Experimental data reported in the nanobody polyreactivity screen of Harvey et al. (2022).

test: yeast display, Sf9 membrane polyspecificity reagent, FACS + sequencing; frameworks hold sequencing errors
Summary of the method: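 Nanobodies from a synthetic yeast display library (Saccharomyces cerevisiae BJ5465), induced 36–48 hours with galactose, were stained 1 hour at 4 °C with 10% biotinylated, detergent-solubilized Sf9 membrane reagent, enriched on streptavidin microbeads, then FACS-sorted. Anti-HA (expression) and streptavidin (reagent binding) fluorescence set low and high (top ~1%) gates. Polyreactivity labels come from the gate of origin. Genes were colony-PCR amplified, MiSeq 2 × 250 sequenced and filtered by CDR length.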

Sequence	polyreactivity (PSR sort gate)
QVQLVESGGGLVQAGGSLRLSCAASGSILYPNAMGWYRQAPGKERELVAAISTSGGSTYYADSVKGRFTLSRDNAKNTVYLQMNSLKPEDTAVYYCAKGWIYYSTWISEYWGQGTQVTVSS	low polyreactivity
QVQLVESGGGLVQAGGSLRLSCAASGSILYRYTMGWYRLAPGTERELVAAITKRGGRTYYADSVKGRITISRDNAMNTVYLQMNSLKPEDTAVFYCYALLTGGYQDSYPDDYWGQGTHVTVSS	high polyreactivity
QVQLVESGGGLVQAGGSLRLSCAASGSILYRYTMGWYRPAPGKERELVAAITKRGGRTYYADSVKGRFTISRDNAKNTVYLQMNSLKPEDTAVYYCAAKYYTGGSFEMYYGGQGTQVTVSS	high polyreactivity
QVQLVESGGGLVQAGGSLRLSCAASGSILYYYVMGWYRQAPGKERELVAAITSGGSTYYADSVKGRFTISRDNAKYTVYFQMIILKPEDTAVFYCAVGYVLTGVFQARFDYWGQGTQVNVSS	high polyreactivity
QVQLVESGGGLVQAGGSLRLSCAASGSIMGWYRQAPGKERELVAAISRGGSTYYADSVKGRFTISRDNAKNTVYLQMNSLKPEDTAVYYCAAKTGGSRSRFEYWGQGTQVTVSS	high polyreactivity
QVQLVESGGGLVQAGGSLRLSCAASGSIRSYAMGWYRQAPGKERELVAAITRSGGSTYYADSVKGRFTISRDNAKITVYLQMNSLKPEDTAFYYCAARYTYSYPLFGSWGQGTQVTVSS	high polyreactivity
QVQLVESGGGLVQAGGSLRLSCAASGSIRSYAMGWYRQAPGKERELVAAITRSGGSTYYADSVKGRFTISRDNAMNTVYLQMNSLKPEDTAVYYCAARYTYSYPLFGSWGQGTQVTVSS	high polyreactivity
QVQLVESGGGLVQAGGSLRLSCAASGSIRYYAMGWYRPAPGKERELVAGITRNGGSTYYADSVKGRFTISRDNAKNTVYLQMNSLKPEDTAVYYCAAGFTTRRGEYNYWGQGTQVTVSS	high polyreactivity
QVQLVESGGGLVQAGGSLRLSCAASGSIRYYAMGWYRQAPGKERELVAAISSRGTNTYYADSVKGRFTISRDNAKNTVYLQMNSLKPEDTAVYYCIAVVGLGYNYWGQGTQVTVSS	high polyreactivity
QVQLVESGGGLVQAGGSLRLSCAASGSISDTYGLGWYRQAPGKERELVASITWSSGSTDYADSVKGRFTISRDNAKNTVYLQMNSLKPEDTAVYYCATYEPFYSFFFRGIYDYWGQGTQVTVSS	low polyreactivity
QVQLVESGGGLVQAGGSLRLSCAASGSISDVYAMGWYRQAPGKERELVAAITSGASTYYADSVKGRFTISRDNAKNTVYLQMNSLKPEDTAVYYCAADSDSQWGMDYWGQGTQVTVSS	low polyreactivity
QVQLVESGGGLVQAGGSLRLSCAASGSISFINAMGWYRQAPGKERELVAAISGSGGSTYYADSVKGRFTISRDNAKNTVYLQMNSLKPEDTAVYYCAADYRIHWYIAYGYWGQGTQVTVSS	low polyreactivity
QVQLVESGGGLVQAGGSLRLSCAASGSISFSNAMGWYRQAPGKERELVAAISWSGGRTYYADSVKGRCTISRDNAKNTVYLQMNSLKPEDTAVYYCAADDFRYGRQVLGLNDYNYWGLGTQVTVSS	low polyreactivity
QVQLVESGGGLVQAGGSLRLSCAASGSISGWYAMGWYRQAPGKERELVADISSIAGSTYYADSVKGRFTISRDNAKNTVYLQMNSLKPEDTAVYYCAADDAAWPYSWWGFDYWGQGTQVTVSS	low polyreactivity
QVQLVESGGGLVQAGGSLRLSCAASGSISGYYAMGWYRQAPGKESELVASIRYTGARTYYADSVKGRFTISRDNAKNTVYLQMNSLKPEDTAVYYCAADVKRDRVWGGDYWGQGTQVTVSS	low polyreactivity
QVQLVESGGGLVQAGGSLRLSCAASGSISGYYDMGWYRQAPGKEREFVAAISLSTTSTYYADSVKGRFTISRDNAKNTVYLQMNSLKPEDTAVYYCATDIVGPHFDYWGQGTQVTVSS	low polyreactivity
QVQLVESGGGLVQAGGSLRLSCAASGSISGYYDMGWYRQAPGKERELVAASSWNGADTYYADSVKGRFTISRDNAKNTVYLQMNSLKPEDTAVYYCAAERENGDHYRYYYWGQGTQVNVSS	low polyreactivity
QVQLVESGGGLVQAGGSLRLSCAASGSISIKNAMGWYSQAPGKERELVATITYNGGSTYYADSVKGRFTISRDNAKNTVYLQMNSLKPEDTAVYYCSAGYLYYAEYDYWGQGTQVTVSS	low polyreactivity
QVQLVESGGGLVQAGGSLRLSCAASGSISKGYAMGWYRQAPGKERELVARISGDGGSTYYADSVKGRFTISRDNAKNTVYLQMNSLKPEDTAVYYCNARAYYGIRYYSWGQGTQVTVSS	high polyreactivity
QVQLVESGGGLVQAGGSLRLSCAASGSISKINAMGWYRQAPGKERELVAAINTGDSTYYADSVKGRFTISRDNAKNTVYLQMNCLKPEDTAVYYCAAEGSPTGYDYWGQGTQVTVSS	low polyreactivity
QVQLVESGGGLVQAGGSLRLSCAASGSISLAYAMGWYRQAPGKERELVAAISFRTGRTFYADSVKGRFTISRDNAKNTVYLQMNSLKPEDTAVYYCAAENLDFYFEEYWGQGTQVTVSS	high polyreactivity
QVQLVESGGGLVQAGGSLRLSCAASGSISPQNVMGWYRQAPGKERELVAAITGGGSTNYADSVKGRFTISRDNAKQTVYLQLNSLKPEDTAVYYCNADYFQDRLDYWGQGTQVTVSS	low polyreactivity

Sequence	polyreactivity (PSR sort gate)
QVQLVESGGGLVQAGGSLRLSCAASGSISRFNTMGWYRQAPGKERELVAAITVSGGSTYYADSVKGRFTISRDNAKNTVYLQMNSLKPEDTAVYYCAKEAWRYRLNFRYNYWGQGTQVTVSS	low polyreactivity
QVQLVESGGGLVQAGGSLRLSCAASGSISSKNAMGWYRQPPGKERQFDAVISGTGGSTYYADSVKGRFTISRDNAKNTVYLQMNSLKPEDTAVYYCAAAASSIVSYGYTWTYGYWGLGTQVTVSS	low polyreactivity
QVQLVESGGGLVQAGGSLRLSCAASGSISTNYAMGWYRQAPGKERELVAAISSSGGSTYYADSVKGRFTISRDNAKNTVYLQMNSLKPEDTAVYYCRYKFGYWGQGTQVTVSS	high polyreactivity
QVQLVESGGGLVQAGGSLRLSCAASGSISVYNAMGWYRQAPGKVRELVAAISWSGGRTSYADSVKGRFTISRDHAKNTVYLQMNSLKPEDTAVYYCAADELTGLWDEDYWGPGTQVTVSS	low polyreactivity
QVQLVESGGGLVQAGGSLRLSCAASGSISWVYAMGWYRQAPGKERELVAAISNSGGSTYYADSVKGRFTISRDNAKNTVYLQMNSLKPEDTAVYYCAADGYFYYSAFWASPYEYWGQGTQVTVSS	high polyreactivity
QVQLVESGGGLVQAGGSLRLSCAASGSISYYNAMGWYRQAPGKERELVAAITYSAGGTYYADSVKGRFTISRDNAKNTVYLQMNSLKPEDTAVYYCAADAYKHVAYGGVYWYYYWGLGTQVTVSS	high polyreactivity
QVQLVESGGGLVQAGGSLRLSCAASGSISYYNAMGWYRQAPGKERELVATITDSGGSTYYADSVKGRFTISRDNAKNTVYLQMNSLKPEDTAVYYWAVDYSEWYSIYEYWGQGTQVTVSS	low polyreactivity
QVQLVESGGGLVQAGGSLRLSCAASGSIVAGNAMGWYIQAPGKEREMVAAITWRSGRTYYADSVKGRFTISRDNAKNTVNLQMNSLKPVDTAVYYCARGRYGYTAPVRRWYFRYDYWGQGTQVTVSS	high polyreactivity
QVQLVESGGGLVQAGGSLRLSCAASGSIVDNRGWYRQAPGKERELVAAISSSGDSTYYADSVKGRFTISRDNAKNTVYLQMNSLKPEDTAVYYCAADFYYYKKQYDYWGQGTQVTVSS	low polyreactivity
QVQLVESGGGLVQAGGSLRLSCAASGSIVGYAMGWYRQAPGKERELVAAISSGGSTNYADSVKGRFTISRDNAKNTVYLQMNSLKPEDTAVYYCAKSWRWRANLRGYYWGQGTQVTVSS	high polyreactivity
QVQLVESGGGLVQAGGSLRLSCAASGSIVRSYAMGWYRQAPGKERELVASITDGTITNYADSVKGRFTISRDNAKNTVYLQMISLKPDDTAVYYCAAGTLAHAYVVRPIEMDYWGQGTQVTVSS	low polyreactivity
QVQLVESGGGLVQAGGSLRLSCAASGSIVSAYVMGWYRQAPGKERELVAAITRSGGSTYYADSVKGRFTISRDNAKNTVYLQMNSLKPEDTAVYYCAADRRWFAYWFDYWGQGTQVTVSS	low polyreactivity
QVQLVESGGGLVQAGGSLRLSCAASGSIVVPYTMGWYRQAPGKEMELVAAINSSDDSTFYADSVKGRFTISRENAKNTVYIKMNSLKPEDTAVYYCNATGYARWYTGDYWGQGTQVTVSS	low polyreactivity
QVQLVESGGGLVQAGGSLRLSCAASGSIVYYNAMGWYRQAPGKERELVASISNGGSTDYADSVKGRFTISRDNAKNTVYLQMNSLKPEDTAVYSCNAKQSYRSEYDYWGQGTQVTVSS	low polyreactivity
QVQLVESGGGLVQAGGSLRLSCAASGSIYGFYAKGWYRQAPAKESELVAAIDSGDSSNYADSVKGRFTISRDNAKNTVYLQMKSLIPEDTAVYYWNAEAWWYFCFDYWGQGTQVTVSS	low polyreactivity
QVQLVESGGGLVQAGGSLRLSCAASGSIYGRYVMGWYRQSPGKERELVATISSGGSTYYADSVKGRFTISRDNAKNTVYLQMNSLKPEDTAVYYCAASYSRFVDWIGDPGYDYWGQGTQVTVSS	low polyreactivity
QVQLVESGGGLVQAGGSLRLSCAASGSIYGYYVMGWNRQAPGKERELVAAISRSGGSTYYADSVKGRFTISRDNAKNTFYLQMNSLKPEDTGVYYCAASFAVRYPRLDYWGQGTQVTVSS	high polyreactivity
QVQLVESGGGLVQAGGSLRLSCAASGSIYLYNAMGWYRQAPGKERELVAVINGRGGTYYADSVKGRFTISRDNAKNNVYLQMNSLKPEDTAVYYCATGYAPSAWYDSVRFEDRDSWGQGTQVTVSS	low polyreactivity
QVQLVESGGGLVQAGGSLRLSCAASGSIYRNNAMGWYRQAPGKERELVAVISRRAGNTYYAVSVKGRFTISRDNAKNTVYLQMNSLKPEDTAVYYCAADYSKSSIRGDYWGQGTQVTVSS	low polyreactivity
QVQLVESGGGLVQAGGSLRLSCAASGSIYRYAMGWYRQAPGKERELVASISRRGGSTYYADSVKGRFTISRDNAKNTVYLQMNSLKPEDTAVYSCNAYGYSFGYDYWGQGTQVTVSS	high polyreactivity
QVQLVESGGGLVQAGGSLRLSCAASGSIYSYTMGWYRQAPGKEKELVAAITYSGDSTYYADSVKGRFTISRDNAKNTVYLQMNSLKPDDTAVYYCAKSGTLSEYDYWGQGTQVTVSS	low polyreactivity
